As a reminder, the Kd is a measure of binding affinity in units of concentration. By koff is commonly meant a measure of how fast the partners let go of each other.

We go through three substances from article PMC10341807, “Lung Surfactant Protein B Peptide Mimics Interact with the Human ACE2 Receptor” (International Journal of Molecular Sciences, 2023).

The target of test [1] is T1, recombinant human ACE2 receptor construct (Homo sapiens, UniProt Q9BYF1).
T1 construct: included residues Glutamine 18 to Serine 740 of the full-length protein; 10xHis (C); purchased R&D Systems
T1 sequence (Q9BYF1 18-740): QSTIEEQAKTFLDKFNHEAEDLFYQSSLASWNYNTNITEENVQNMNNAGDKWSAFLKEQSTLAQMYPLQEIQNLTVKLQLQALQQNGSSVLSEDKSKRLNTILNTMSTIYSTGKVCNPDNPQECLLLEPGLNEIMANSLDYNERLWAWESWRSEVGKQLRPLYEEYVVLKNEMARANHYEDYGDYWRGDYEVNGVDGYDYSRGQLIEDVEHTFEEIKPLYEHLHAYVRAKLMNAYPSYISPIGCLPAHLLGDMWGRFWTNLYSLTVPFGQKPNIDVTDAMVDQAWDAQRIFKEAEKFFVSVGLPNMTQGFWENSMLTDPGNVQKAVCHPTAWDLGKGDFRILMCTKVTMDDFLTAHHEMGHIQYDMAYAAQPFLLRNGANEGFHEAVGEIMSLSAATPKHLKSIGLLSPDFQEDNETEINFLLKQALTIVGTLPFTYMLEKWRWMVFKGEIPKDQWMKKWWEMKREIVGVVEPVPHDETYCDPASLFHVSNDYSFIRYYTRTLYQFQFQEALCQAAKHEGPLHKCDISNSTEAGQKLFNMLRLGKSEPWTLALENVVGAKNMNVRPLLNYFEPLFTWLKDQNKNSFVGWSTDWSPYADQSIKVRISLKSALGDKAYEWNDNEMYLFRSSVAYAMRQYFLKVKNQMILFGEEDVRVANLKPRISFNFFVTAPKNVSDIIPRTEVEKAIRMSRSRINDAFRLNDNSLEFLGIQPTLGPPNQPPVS
As to the kind of experiment: Surface plasmon resonance (SPR) binding of peptides to immobilised rhACE2. The settings on record: pH 7.4, read-out: ka. For orientation: SPR reads the build-up and loss of mass on a sensor chip optically.
Procedure: The binding of the solute to the sensor surface ligand results in an evanescent sensor response and is measured in response units (RU) that are proportional to the bound mass.
Expressed viral spike and human ACE2 receptor protein constructs were supplied by R&D Systems (https://www.bio-techne.com accessed on 25 May 2023). The recombinant human ACE2 receptor construct included residues Glutamine 18 to Serine 740 of the full-length protein with a C-terminal 10 Histidine tag.
The organic-solvated peptides were then diluted into 1–2000 dilutions in the HBS–EP buffer for injection. Binding measurements were then made by flowing a running buffer solution of the test sample in the HBS–EP buffer over the chip-associated ACE2 at a flow rate of 30 µL/min for 5 min to determine the binding affinity at 37 °C. […] The binding associated with control medium containing no peptide was subtracted from final affinity traces. The mean “on” and “off” rate constants (kon and koff) and the dissociation equilibrium constant (KD = koff/kon) were calculated using Biacore Insight Evaluation Software version 5, based on curve-fitting measurements.

Test [2] deals with recombinant human ACE2 receptor construct (angiotensin-converting enzyme 2) (human) (UniProt Q9BYF1). The test can be described thus: SPR; Biacore T100; ACE2 immobilised on the sensor chip, peptide (from 1 mg/mL in DMSO, diluted in HBS-EP buffer, 0.5 µg/mL) flowed at 30 µL/min for 5 min; 37 °C; HBS-EP: 10 mM Hepes pH 7.4, 150 mM NaCl, 3 mM EDTA, 0.005% surfactant P20.
Chain of recombinant human ACE2 receptor construct (angiotensin-converting enzyme 2) (human) (Q9BYF1 18-740): as above

Bridges are numbered along the chain shown (N, C = ends). Where no end group is shown, it is not given here.

Turning to “FPIPLPYYWLYRALIKRIQALIPKGGRLLPQLVYRLVLRYS [B-YL]”, the kon in test [1] came to 21900 M⁻¹ s⁻¹.

On to “FPIPLPYCWLCRALIKRIQAMIPKGGRMLPQLVCRLVLRCS (disulfide 8-40, 11-34) [SMB]”, for which the kon in test [1] stood at 6200 M⁻¹ s⁻¹.

In the case of “Super Mini-B (SMB), synthetic lung surfactant protein B peptide mimic”, in test [2], the Ka was found to be 1.01e+08 M⁻¹, the Kd was determined as 9.87 nM, the Kobs (at 1.05 × 10^−7 analyte) amounted to 0.000712 s⁻¹ and the koff came to 6.12e-05 s⁻¹. Besides, the kon in test [2] was 6200 M⁻¹ s⁻¹.
